Test results taken from PMC12312033.

What was measured:
Test in all cases: NMR
Conditions in all cases: 286 K (pH measured at 21 °C), none, MilliQ water with 3.2 mM DSS-d6 and 0.13 mM EDTA, pH adjusted with NaOH/HCl, random coil
[1] = biological target: Glu21 (UniProt position 72, …)
[2] = biological target: Glu24 (UniProt position 75, …)
[3] = biological target: Glu17 (UniProt position 68, …)
[4] = biological target: Glu3 (position 3, ---GGEGG---)
[5] = 50 mM CaCl2, total ionic strength not stated, 50 mM CaCl2 (5-fold excess over 10 mM peptide)
[6] = not stated (no added salt; varies with NaOH/HCl additions), no Ca2+, 10 mM peptide

Row | Protein | pKa [1, 5] | pKa [1, 6] | pKa [2, 5] | pKa [2, 6] | pKa [3, 5] | pKa [3, 6] | pKa [4, 5] | pKa [4, 6]
1 | PLEPRREVSELN [Osteocalcin P15-N26 peptide, uncarboxylated (Glu) form (peptide 5) (Homo sapiens; C23S)] | 4.28 | 4.33 | 4.20 | 4.19 | 4.25 | 4.26 |  | 
2 | GGEGG [Model peptide 1, Ac-GGEGG-NH2 (synthetic)] |  |  |  |  |  |  | 4.30 | 4.34
